Assay results published in paper doi:10.1101/2020.06.09.141986.

Molecular target: Aldob (aldolase B) (UniProt P05062)
Assay: anti-Flag co-IP, immunoblot
Details: reference: Akt1 wild type

| binding against the reference (sites S473) | binding against the reference (sites T308) | Substance |
| --- | --- | --- |
| weaker | – | Akt1 (from UniProt P31749) Akt1-S473A |
| – | weaker | Akt1 (from UniProt P31749) Akt1-T308A |
